Measured values from patent US20080207449A1 (CROPDESIGN N V, published 2008).

T1: GAL4 transactivation domain fusion of AtDPa 1-292 (prey in pAD-GAL424) (Arabidopsis thaliana, UniProt Q9FNY3 1-292)
T1 construct: also called full-length AtDPa prey
T1 sequence: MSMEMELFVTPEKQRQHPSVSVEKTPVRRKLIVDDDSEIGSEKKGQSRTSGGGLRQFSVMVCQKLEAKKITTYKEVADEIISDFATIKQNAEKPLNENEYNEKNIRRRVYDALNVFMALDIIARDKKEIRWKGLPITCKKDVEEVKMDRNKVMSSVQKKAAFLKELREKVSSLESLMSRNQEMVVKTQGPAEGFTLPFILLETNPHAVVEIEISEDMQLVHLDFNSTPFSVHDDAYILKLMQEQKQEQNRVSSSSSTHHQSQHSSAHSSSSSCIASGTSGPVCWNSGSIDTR

T2: CCP16, two-hybrid prey clone E2F5BBC1 (Arabidopsis thaliana, UniProt Q9FNY3 1-292)
T2 construct: partial protein read from the clone; also called DPa; AtDPa
T2 sequence: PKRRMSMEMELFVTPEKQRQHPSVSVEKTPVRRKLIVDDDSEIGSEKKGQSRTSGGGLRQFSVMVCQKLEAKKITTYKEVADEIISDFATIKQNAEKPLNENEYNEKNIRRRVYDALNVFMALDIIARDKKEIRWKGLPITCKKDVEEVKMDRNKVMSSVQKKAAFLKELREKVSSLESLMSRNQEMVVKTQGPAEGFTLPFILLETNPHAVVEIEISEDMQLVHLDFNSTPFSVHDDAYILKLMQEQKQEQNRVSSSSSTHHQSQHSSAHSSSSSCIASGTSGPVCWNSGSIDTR

B1: GAL4 transactivation domain fusion of AtDPb 1-385 (prey in pAD-GAL424) (other, not shown: large carriers)
chain: MTTTGSNSNHNHHESNNNNNNPSTRSWGTAVSGQSVSTSGSMGSPSSRSEQTITVVTSTSDTTFQRLNNLDIQGDDAGSQGASGVKKKKRGQRAAGPDKTGRGLRQFSMKVCEKVESKGRTTYNEVADELVAEFALPNNDGTSPDQQQYDEKNIRRRVYDALNVLMAMDIISKDKKEIQWRGLPRTSLSDIEELKNERLSLRNRIEKKTAYSQELEEQYVGLQNLIQRNEHLYSSGNAPSGGVALPFILVQTRPHATVEVEISEDMQLVHFDFNSTPFELHDDNFVLKTMKFCDQPPQQPNGRNNSQLVCHNFTPENPNKGPSTGPTPQLDMYETHLQSQQHQQHSQLQIIPMPETNNVTSSADTAPVKSPSLPGIMNSSMKPEN
notes: also called full-length AtDPb prey
B2: pGBTE2Fb 1-127: GAL4 DNA-binding domain fusion of AtE2Fb amino acids 1-127 (other)
chain: MKLLSSIEQACDICRLKKLKCSKEKPKCAKCLKNNWECRYSPKTKRSPLTRAHLTEVESRLERLEQLFLLIFPREDLDMILKMDSLQDIKALLTGLFVQDNVNKDAVTDRLASVETDMPLTLRQHRISATSSSEESSNKGQRQLTVSMSEEVPQQFPSSKRQLHPSLSSMKPPLVAPGEYHRFDAAETRGGGAVADQVVSDAIVIKSTLKRKTDLVNQIVEVNELNTGVLQTPVSGKGGKAKKTSRSAKSNKSGTLASGSNAGSPGNNFAQAGT
B3: pGBTE2Fa226-356: GAL4 DNA-binding domain fusion of AtE2Fa amino acids 226-356 (other)
chain: MKLLSSIEQACDICRLKKLKCSKEKPKCAKCLKNNWECRYSPKTKRSPLTRAHLTEVESRLERLEQLFLLIFPREDLDMILKMDSLQDIKALLTGLFVQDNVNKDAVTDRLASVETDMPLTLRQHRISATSSSEESSNKGQRQLTVSNRILWKGVDACPGDEDADVSVLQLQAEIENLALEEQALDNQIRQTEERLRDLSENEKNQKWLFVTEEDIKSLPGFQNQTLIAVKAPHGTTLEVPDPDEAADHPQRRYRIILRSTMGPIDVYLVSEFEGKFE
notes: also called E2F5 dimerisation domain; E2Fa (=E2F5) dimerization domain
B4: GAL4 transactivation domain fusion of AtE2Fa 226-356 (prey of Table V) (other, not shown: large carriers)
chain: NRILWKGVDACPGDEDADVSVLQLQAEIENLALEEQALDNQIRQTEERLRDLSENEKNQKWLFVTEEDIKSLPGFQNQTLIAVKAPHGTTLEVPDPDEAADHPQRRYRIILRSTMGPIDVYLVSEFEGKFE
notes: its construction is not described

Assays:
[1] = target: T3, pGBTE2Fb-Rb: GAL4 DNA-binding domain fusion of AtE2Fb amino acids 1-385 (lacking the Rb-binding domain) (Arabidopsis); experiment: yeast two-hybrid, growth on His- minimal medium; legend: +, positive interaction
T3 construct: also called E2F3 N-terminal; E2Fb (=E2F3) N-terminal domain
Experimental: (§1) Different combinations between bait (pGBTE2Fa226-356, pGBTE2Fb-Rb, or pGBTE2Fb 1-127, SEQ ID NO:207) and prey constructs were transformed into yeast cells and assayed for their ability to grow on His⁻ minimal media after 3 days of incubation at 30° C. Bait plasmids co-transformed with empty pAD-GAL424 and prey plasmids co-transformed with empty pGBT9 were assessed along as controls for the specificity of the interaction.
(§2) Different combinations between AtE2Fs bait and AtDPs prey constructs were tested for growth on His minimal media. −, no interaction; +, positive interaction; NT, not tested.

[2] = target: T4, pGBT DPb 1-385: GAL4 DNA-binding domain fusion of AtDPb 1-385 (Arabidopsis thaliana); experiment: yeast two-hybrid, growth on His- minimal medium; legend: -, no interaction
T4 construct: its construction is not described

[3] = target: T5, pGBT DPa 1-292: GAL4 DNA-binding domain fusion of AtDPa 1-292 (Arabidopsis thaliana); experiment: as above
T5 construct: its construction is not described

[4] = target: B1; experiment: as above
[5] = target: T1, GAL4 transactivation domain fusion of …; experiment: as above
[6] = target: T2, CCP16, two-hybrid prey clone E2F5BBC1; experiment: yeast two-hybrid library screen (GAL4, His prototrophy in HF7c); prey clone isolated with this bait
Experimental: For library screening, vectors and strains (HF7c) were provided with the Matchmaker two-hybrid system (Clontech). The dimerization and DNA-binding domains of the AtE2Fa (amino acids 226-356; SEQ ID NO:205) were amplified by polymerase chain reaction (PCR) and subcloned in-frame with the GAL4 DNA-binding domain of pGBT9 (Clontech) to create the bait plasmid pGBTE2Fa226-356. Screens were performed as described previously (De Veylder et al. 1999; Planta 208, 453-462). A second library screening was performed with the AtE2Fb construct (pGBTE2Fb-Rb) lacking the Rb-binding domain (amino acids 1-385; SEQ ID-NO:206). Plasmids from interacting clones were isolated and sequenced.

[7] = target: B1; experiment: yeast two-hybrid, growth on His- minimal medium; legend: +, positive interaction
Experimental: as §1, §2

[8] = target: T1, GAL4 transactivation domain fusion of …; experiment: as above
Experimental: as §1, §2

[9] = target: T6, empty pGBT9 (GAL4 DNA-binding domain alone) (UniProt P04386 1-147); experiment: yeast two-hybrid, growth on His- minimal medium; empty bait vector control; legend: -, no interaction
T6 construct: empty bait vector, control for specificity; also called pBGT9
Experimental: as §1, §2

[10] = target: T3, pGBTE2Fb-Rb: GAL4 DNA-binding domain …; experiment: yeast two-hybrid, growth on His- minimal medium; legend: -, no interaction
[11] = target: B3; experiment: as above
[12] = target: B2; experiment: as above

B1
binding result [1]: binds | binding result [2]: no binding | binding result [3]: no binding

B2
binding result [4]: no binding | binding result [5]: no binding

B3
binding result [6]: binds | binding result [7]: binds | binding result [8]: binds

B4
binding result [9]: no binding | binding result [10]: no binding | binding result [11]: no binding | binding result [12]: no binding
